# Measured values as given in the DeepSol protein solubility set.
# Assay: soluble on expression in E. coli; label from the status in PepcDB or PDB records
row,Sequence,soluble on expression in E. coli
1,MLTEEKEDYLKAILTNNGDKNFVTNKILSQFLNIKPPSVSEMVGRLEKAGYVETKPYKGVRLTEDGLTHTLDIIKRHRLLELFLIEILKYNWEEVHQEAEILEHRISDLFVERLDSLLNFPETCPHGGVIPRNNEYKEKYITTILNYEPGDIVTIKRVRDKTDLLIYLSSKDISIGNEVEIVSKDEMNKVIIIKRNDNVIIVSYENAMNMFAEK,not soluble
2,MYGEWGMGNILMMFHVYLVQGFRSEHGPVKDFSFERSSRSMLERSEQQIRAASSLEELLQIAHSEDWKLWRCRLKLKSLASMDSRSASHRSTRFAATFYDL,not soluble
3,MAATQEEIVAGLAEIVNEIAGIPVEDVKLDKSFTDDLDVDSLSMVEVVVAAEERFDVKIPDDDVKNLKTVGDATKYILDHQA,soluble
4,MKLIFQMGKQPVLEKTILLFILSIVESLKLKVVSLDEAHRYIFNLEVLELLMDRNIDDQVLELIHFGMGLEDIYHVLPEELEHTIEELKWLCIQVLSEYSMHEESEQLIEDIR,not soluble
5,MSLNISTGLLIVESPTKAKTIAKMFSRPSVRIRNKVPVYETIIVDGNQIYVLDIVASKGHIVDLTLEDIGYYGIKVEDDGTIKPYYDLIKKCLDCNKIFSSASDKCPYCGSANLQSAQTTINLLRELALSVDKVFIASDPDTEGEKIAYDLASFLSPYNSNVYRVVYHEITKKAILEALRNPKKINTNLVMSQIVRRIEDRWIGFTLSNLLKTKFNGHNHGAGRVQTPVLGWIVNKTIKYKSAMGHVVYIDIAGYSIKKYFSEKRKVEEYINNLQVARIEKISEEKILLSPLPPFTTDTLLIEANMKYKLPANLVMKIAQDLFEAGLITYHRTDSTHISSVGIEIAKEYLQKQALIKEFVPRSWESSEEGAHEAIRPTRAIDVNELIQEIEENPYKYSIRFSKLHLLIYDLIFKRFIASQMSHAVGTKSRYLIKLGKDDNVDVELLSNAEGGFIKVYPVKVYNLPVGEIQPKVNITKGSSEQLLSYSDVISLMKSKGIGRPSTYAKTIENLMKHGYIVSSKRKSYLIATNRGISVYQFLSSKFYDLVSESTTSRLMTKLDDIALSKLNASTVLLEIFSEISTLVNPLKSEEGHHHHHH,soluble
6,AAGTVFTTVEDLGSKILLTCSLNDSATEVTGHRWLKGGVVLKEDALPGQKTEFKVDSDDQWGEYSCVFLPEPMGTANIQLHGPPRVKAVKSSEHINEGETAMLVCKSESVPPVTDWAWYKITDSEDKALMNGSESRFFVSSSQGRSELHIENLNMEADPGQYRCNGTSSKGSDQAIITLRVRSH,soluble
7,MHHHHHHSSGVDLGTENLYFQSMKIAVIGQSLFGQEVYCHLRKEGHEVVGVFTVPDKDGKADPLGLEAEKDGVPVFKYSRWRAKGQALPDVVAKYQALGAELNVLPFCSQFIPMEIISAPRHGSIIYHPSLLPRHRGASAINWTLIHGDKKGGFSIFWADDGLDTGDLLLQKECEVLPDDTVSTLYNRFLFPEGIKGMVQAVRLIAEGKAPRLPQPEEGATYEGIQKKETAKINWDQPAEAIHNWIRGNDKVPGAWTEACEQKLTFFNSTLNTSGLVPEGDALPIPGAHRPGVVTKAGLILFGNDDKMLLVKNIQLEDGKMILASNFFK,soluble
8,GVSIRSMKNFYDWIKEFVRDQGEFIAQQSGWLELERSSYAKLIAQTISHVLNGGSLLVSADSSRHWFLNYILSNLNPKDLKERPLLSVIDFNASSFYPKNDANLSLATIEMTYQNPMFWHVGKIENEGLKTILLSKIPSFLWLFEELKEDCLLLKEHDSLLDYKLLQLFKLFENALFSVLYNKVTL,soluble
9,EGSENLFITGDNLEALKLLQESYLGKIDMIYIDPPYNTGKDFVYQDNFKKTKKENDLSEGILDEEGDRLVKNEKSNGRYHSDWLTMIYPRLKLARNLLSDSGIIFVSIDENEIANLELLLTEIFGENNLAGTIVWDKRNPKGDSKGVSMQHEYIVAAAKNINIFSEFKEFKRPKKNAEIIL,not soluble
10,MGSDKIHHHHHHMRRSKLTPTTPPMFKNLSVYRIQGDWHPAIAEAEASLQKFRFAECGATQAISAGWVEPRGEKHGPLVEAVGDQWMLTLCIQTKLLPAGVIKQHVDARIEQIKQREARRPGKKEVREIKEAVILELLPKAFSKKEHISVWIDRKNKLVAIDTASQSKCDTATSALVKTLDGLAIGLIQTQMSPGTCMSQWLMDGEAPDGFGVERECELKSSDESRSAVKYSRHVLDIDEVKQHLTHGKTPTQLAMTWTDRVSFTLTDAMALKKVTFLETPLMKKKAGGDDPFDANAAIVTGELSQLIPQLIEALGGELEFTGESGEGAREAKSEEREQETAEA,not soluble
11,AGGGYWHTSGREILDANNVPVRIAGINWFGFETCNYVVHGLWSRDYRSMLDQIKSLGYNTIRLPYSDDILKPGTMPNSINFYQMNQDLQGLTSLQVMDKIVAYAGQIGLRIILDRHRPDCSGQSALWYTSSVSEATWISDLQALAQRYKGNPTVVGFDLHNEPHDPACWGCGDPSIDWRLAAERAGNAVLSVNPNLLIFVEGVQSYNGDSYWWGGNLQGAGQYPVVLNVPNRLVYSAHDYATSVGPQTWFSDPTFPNNMPGIWNKNWGYLFNQNIAPVWLGEFGTTLQSTTDQTWLKTLVQYLRPTAQYGADSFQWTFWSWNPDSGDTGGILKDDWQTVDTDKDGYLAPIKSSIFDPV,soluble
12,MYVDPKVTIETVKTLNTYLKTRAELRSTDHVVIAEKLDDNDKKATTRLKILTKFDEGRFGAIYMVQNESAVDNDVVSVGNSRFIMKTALRQLSSHQIVYRLSREITVLKTLWGQGNDPPPRVPPILHQGKILGVPFYVTSIFDVNLEKCREQMGGGTFCVQSAFHIAQEIFMALKFMHRRQLVHRDVKPTNIALSYQNRDQWYLIDYGDAISVGKKTPISPPDGVTLPFLSLEAHDLLVTSSYSSFQQDLESWFYVIVDLLKPLPWKDNNRIDKVALAKRDFMSRLPNNLTNLPSQILDIGQILKTESPYSEISKKLVEGLASVKTSSSEKWNPEWYDRSATRNLREKKIKNQPRSRESAEAEATAVQTTPTGSTELQNDRRDKSVYVSTIVTKVVDNRKKVSSSNSPTTVSTNKTAVIEDEEDVKKNSPIQKQQDRSVYFNDFPVAAVAQPETGKKKKYRYKMRKQ,not soluble
13,MKEKVFFKTFGCRTNIYDTELLKSYVKDYEIINDENKAQIIVVNSCTVTNGADSGIKSYVNTMQKKGIKVILTGCGAVSKGKELLDKKQVFGVLGASNKDKINEFLGAKTSFYELGNLNFIDKDIVCEYENHTKAFVKIQEGCDFACSYCIIPSVRGKSRSVDEKALLKQVEILGANGYSEIVLTGTNIGSYGLKNGTTLGKLLQKMGQILGIKRIRLGSLEPAQLDESFLEILDEAWLERHLHIALQHTSEKMLRIMRRRSHTDNDLKLFNTIASKGYALGTDFIVAHPGESEELWQEALRNFKEFPLTHIHAFIFSPRNNTHSATMKDVINGTLAKERLNTLKSIVEKNNYEFRKKNQVSLEVLVENQKDGFFEGYDQFFNKIKIKSDKDIAKEWIVISEYEVQEKSNFTNLKGLEHHHHHH,soluble
14,MNASQPPPGGRLPDEVFRKITAVDQGQSTLTQSGIQGLSARTLSSEPRGDLVFQLVEIIKKPGQSLGLYLREGNGKDRSDGVFVSRFGDNSELAKYGEVMRPGDEILTINNVEVSMMSIDDVVLILSIPRRLLLRIRYSKSMRHEIISSRSRESERPVVVFHKYDDRRDSETNAPILSQPTSTANTWLGKKSRQQMEEMRNATTSSTLRTHASTSSPRNHFAPRLVNGHSHSIGVPSASTTSHDHQYQRFASEPSDSVSRTARVPPPRLASATVRRTESFNSAPGVSTSAPMYTLPRSSTAVPPPDILGSIPYSARDPLMRSSADLPYDPMTGRLSSSVPTDPLLSRSLCSPILPRTLRQANDSNKSNSLPRRRIMTGGRNVKWRNDVVSTSDLCGEESDGAISAPEYSSPPFSRLTQQQQFRLSNGSPGRTVNDIFSAAEYRNWAGPYDPRGMYGPFPPGQRATRWSHTYGEQRAPRTSSLPGRTVLAQSLVGSPVLPRHPPPIVQDRPSAVFDRYHVSPLMNRRAPLRAAGPGINVDRLSVSSLTGILYVHIVEGRGLKIPEKQKGLTEEMYCVLEVDEQHRARTGVSTIEQKFKWRETFHIDVVNATVSNFFVYSWHPQFRHKLCHKGSLKLLEAFVVDQLNDDRVFALNLEPRGQLIVRIGFHDLQAVFRRTVNPRLNGVFGISLSRLVQRERRDTPIVLTRLIQEIEKRGVDYSGLYVLCGSVEKKKMLRAELESNPLGTELAAESIPDTNVIACLIKDFLRELPEPLISPQIHGMLLEAASVALPNDVQTNRHLVLKIIDCLQLSAKNCLLLVLDHLSTVLCSSPHNGLTPTRLSLIFAPLLFFCLDTFSPYTISPTSKMAAVRTLDINQASSSLQMILSIWPSRVSELVEFFPFLLNYPTVSYSSPNPHSESGSDSPATTCQKGGVIAYVSESQC,not soluble
15,MPFTLGQRWISDTESELGLGTVVAVDARTVTLLFPSTGENRLYARSDSPVTRVMFNPGDTITSHDGWQMQVEEVKEENGLLTYIGTRLDTEESGVALREVFLDSKLVFSKPQDRLFAGQIDRMDRFALRYRARKYSSEQFRMPYSGLRGQRTSLIPHQLNIAHDVGRRHAPRVLLADEVGLGKTIEAGMILHQQLLSGAAERVLIIVPETLQHQWLVEMLRRFNLRFALFDDERYAEAQHDAYNPFDTEQLVICSLDFARRSKQRLEHLCEAEWDLLVVDEAHHLVWSEDAPSREYQAIEQLAEHVPGVLLLTATPEQLGMESHFARLRLLDPNRFHDFAQFVEEQKNYRPVADAVAMLLAGNKLSNDELNMLGEMIGEQDIEPLLQAANSDSEDAQSARQELVSMLMDRHGTSRVLFRNTRNGVKGFPKRELHTIKLPLPTQYQTAIKVSGIMGARKSAEDRARDMLYPERIYQEFEGDNATWWNFDPRVEWLMGYLTSHRSQKVLVICAKAATALQLEQVLREREGILAAVFHEGMSIIERDRAAAWFAEEDTGAQVLLCSEIGSEGRNFQFASHMVMFDLPFNPDLLEQRIGRLDRIGQAHDIQIHVPYLEKTAQSVLVRWYHEGLDAFEHTCPTGRTIYDSVYNDLINYLASPDQTEGFDDLIKSCREQHEALKAQLEQGRDRLLEIHSNGGEKAQALAESIEEQDDDTNLIAFAMNLFDIIGINQDDRGDNMIVLTPSDHMLVPDFPGLSEDGITITFDREVALAREDAQFITWEHPLIRNGLDLILSGDTGSSTISLLKNKALPVGTLLVELIYVVEAQAPKQLQLNRFLPPTPVRMLLDKNGNNLAAQVEFETFNRQLNAVNRHTGSKLVNAVQQDVHAILQLGEAQIEKSARALIDAARNEADEKLSAELSRLEALRAVNPNIRDDELTAIESNRQQVMESLDQAGWRLDALRLIVVTHQ,not soluble
16,MSLFFSLPYRFNVLSVVIASIPTLAFPTTFSDSTFFHKDWEIVCDNTLTCRAAGYSPEEKGMGEDTGTQDVSLLITRHAGQNTPITAEVTLAEVDKEIPKGTRLTLAIDGVDKGVLTSTEDNLWQLNETQIPAVLQALKGRGKVAFLHDGMVSELSGAGAYAVLLKMDERQGRIGTTDAITKKGNKSSELSAVAAPVIYAAATSQEPSRNLTNAEQAAIQKKLLKTLKEDDCYDFPPQEERVAEPMMITPLNGSMSLLSTLCWRAAYNEGYAYWVIDNAMQTQPQLMTTIGVGYENGEITAVQKGRGLADCMSDSAWVWDGKTFQQSRASITGSCRMIRLGGTWDLPYWTATVIRPGKEGHHHHHH,soluble
17,MPLVSMKEMLNKALEGKYAVGQFNMNNLEWTQAILAAAEEEKSPVILGVSEGAARHMTGFKTVVAMVKALIEEMNITVPVAIHLDHGSSFEKCKEAIDAGFTSVMIDASHHPFEENVETTKKVVEYAHARNVSVEAELGTVGGQEDDVIAEGVIYADPAECKHLVEATGIDCLAPALGSVHGPYKGEPNLGFAEMEQVRDFTGVPLVLHGGTGIPTADIEKAISLGTSKINVNTENQIEFTKAVREVLNKDQEVYDPRKFIGPGRDAIKATVIGKIREFGSNGKA,not soluble
